What all share (assay): cell-based or functional assay
Assay [1] has as its target Mu opioid receptor (MOR).
In assay [2] the target is Delta opioid receptor (DOR).
Assay [3] deals with T1, Kappa opioid receptor (KOR) (Homo sapiens (Human), UniProt P41145 1-380).
Assay [4] concerns the target Mu opioid receptor (MOR). This is another data set of the same source.
Assay [5] concerns the target Delta opioid receptor (DOR). The source holds these as a separate data set.
Assay [6] addresses T1, Kappa opioid receptor (KOR). The source holds these as a separate data set.

Square brackets hold non-standard residues; d marks the D form. Ends that are not written are not given here. Phe(4-NO2) = N[C@@H](Cc1ccc([N+](=O)[O-])cc1)C(=O)O; Phe(4-Cl) = N[C@@H](Cc1ccc(Cl)cc1)C(=O)O; Api = NC1(C(=O)O)CCNCC1; NMA = N-methylarginine; Sar = CNCC(=O)O Some results are limits rather than exact numbers.

Sequence of Mu opioid receptor (MOR) (P35372 whole entry): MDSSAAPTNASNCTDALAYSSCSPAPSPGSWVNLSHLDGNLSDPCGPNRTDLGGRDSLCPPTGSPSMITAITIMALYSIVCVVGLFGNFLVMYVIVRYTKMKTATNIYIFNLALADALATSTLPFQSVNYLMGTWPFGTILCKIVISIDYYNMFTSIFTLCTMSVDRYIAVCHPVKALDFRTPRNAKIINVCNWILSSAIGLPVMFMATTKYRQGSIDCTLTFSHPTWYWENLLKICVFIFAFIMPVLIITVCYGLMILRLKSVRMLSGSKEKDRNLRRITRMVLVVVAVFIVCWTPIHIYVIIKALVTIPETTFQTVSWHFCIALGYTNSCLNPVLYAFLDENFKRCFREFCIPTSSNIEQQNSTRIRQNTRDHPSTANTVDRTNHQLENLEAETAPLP
T1 sequence (P41145 whole entry, form in doubt): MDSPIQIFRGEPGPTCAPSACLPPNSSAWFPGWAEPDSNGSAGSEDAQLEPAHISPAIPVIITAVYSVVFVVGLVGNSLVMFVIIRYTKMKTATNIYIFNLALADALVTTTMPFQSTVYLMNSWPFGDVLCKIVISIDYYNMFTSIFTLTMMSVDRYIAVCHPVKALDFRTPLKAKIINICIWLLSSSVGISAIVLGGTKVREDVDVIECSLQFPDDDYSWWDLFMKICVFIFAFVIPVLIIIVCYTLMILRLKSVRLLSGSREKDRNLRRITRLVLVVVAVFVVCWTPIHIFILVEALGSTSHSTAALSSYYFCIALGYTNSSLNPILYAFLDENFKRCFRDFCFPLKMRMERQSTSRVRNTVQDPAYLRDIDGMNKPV

For H-Y[Sar]FLR[dR]-NH2 [SEQ ID NO. 3: NH2-Tyr-Sar-Phe-Leu-Arg-DArg-NH2], the “Activity (EC50, nM), cAMP assay” value in the assay with Mu opioid receptor (MOR) [1] was more than 10000 nM; in assay [2], more than 10000 nM; in assay [3], 74.7 nM. Also, the “cAMP assay (ALPHAScreen), result at 1 µM peptide” value (“cAMP assay … at 1 µM peptide” for short) was -0.68 with Mu opioid receptor (MOR) [4], -2.27 in assay [5] and 27.2 in assay [6]. Also, the “cAMP assay (ALPHAScreen), result at 10 µM peptide” value (“cAMP assay … at 10 µM peptide” below) with Mu opioid receptor (MOR) [4] turned out to be 2.17; in assay [5], 2.24; in assay [6], 43.6.

B1: CR845 (SEQ ID NO. 35: DPhe-DPhe-DLeu-DLys-Cap-CO2H) (peptide)
peptide: [dF][dF][dL][dK][Api]-OH
modifications: N-terminus assumed
SMILES: CC(C)C[C@@H](NC(=O)[C@@H](Cc1ccccc1)NC(=O)[C@H](N)Cc1ccccc1)C(=O)N[C@H](CCCCN)C(=O)NC1(C(=O)O)CCNCC1
With B1, the “Activity (EC50, nM), cAMP assay” value in the assay with Mu opioid receptor (MOR) [1] was more than 10000 nM; in assay [2] it was more than 10000 nM; in assay [3], 0.37 nM. Also, the figures for the “cAMP assay … at 1 µM peptide” value (with Mu opioid receptor (MOR) [4]; in assay [5]; in assay [6]) were 0.37, -5.72 and 25.9, respectively. Further, the entries for the “cAMP assay … at 10 µM peptide” value (with Mu opioid receptor (MOR) [4]; in assay [5]; in assay [6]) were 8.07, 3.27 and 34.6, respectively.

H-Y[Sar]FLRR-NH2 [SEQ ID NO. 2: NH2-Tyr-Sar-Phe-Leu-Arg-Arg-NH2]: the “Activity (EC50, nM), cAMP assay” value in the assay with Mu opioid receptor (MOR) [1] is 6700 nM; in assay [2], more than 10000 nM; in assay [3], 8.6 nM. For the same molecule, the “cAMP assay … at 1 µM peptide” value with Mu opioid receptor (MOR) [4] was -2.5; in assay [5] it was -0.47; in assay [6] it was 21.6. The “cAMP assay … at 10 µM peptide” value with Mu opioid receptor (MOR) [4] is 12.4; in assay [5], 22; in assay [6], 32.4.

For the molecule H-Y[Sar][Phe(4-NO2)]L[NMA][dR]-NH2 [SEQ ID NO. 15: NH2-Tyr-Sar-(4-NO2)Phe-Leu-NMA-DArg-NH2], the “Activity (EC50, nM), cAMP assay” value with Mu opioid receptor (MOR) [1] is more than 10000 nM; in assay [2] it was 1320 nM; in assay [3], 13.5 nM.

Regarding H-Y[Sar][Phe(4-Cl)]LR[dR]-NH2 [SEQ ID NO. 11: NH2-Tyr-Sar-(4-Cl)Phe-Leu-Arg-DArg-NH2], the “Activity (EC50, nM), cAMP assay” value with Mu opioid receptor (MOR) [1] was more than 10000 nM; in assay [2] it was more than 10000 nM; in assay [3], 6.1 nM. Moreover, the “cAMP assay … at 1 µM peptide” value with Mu opioid receptor (MOR) [4] is -0.86; in assay [5], -1.18; in assay [6], 27.7. Moreover, the “cAMP assay … at 10 µM peptide” value with Mu opioid receptor (MOR) [4] came out at 1.37; in assay [5], 4.27; in assay [6], 34.
